# Laboratory results as given in patent US7393946.
# System: ORCA-3 (Catharanthus roseus)
# Experiment: cell_activity
# Settings: GUS/CAT, C. roseus cells
# Chain of ORCA-3 (Catharanthus roseus) (chain, as listed by the source): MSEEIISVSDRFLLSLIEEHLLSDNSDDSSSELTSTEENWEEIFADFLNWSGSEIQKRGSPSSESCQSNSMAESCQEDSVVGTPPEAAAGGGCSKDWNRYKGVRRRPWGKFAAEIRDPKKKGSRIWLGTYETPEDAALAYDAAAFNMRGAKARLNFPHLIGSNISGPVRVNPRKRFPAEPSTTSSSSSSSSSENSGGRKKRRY
substance,measurement,value
Str1 NH promoter (-202 to -1),activity (fold activation),5
